Experimental data taken from patent publication US8129149B1, “Rapid and sensitive method to measure endonuclease activity” (The United States of America as represented by the …, priority 2008, dated 2012).

Molecular target: T1, Recombinant APE1 (Homo sapiens, UniProt P27695)
T1 construct: purchased NEW ENGLAND BIOLABS
Assay: APE activity assay: APE cleavage of the substrate oligonucleotide, detected by Taq polymerase extension and real-time PCR
Assay type: biochemical
Settings: well A04; Substrate DNA and Template DNA with APE
Protocol: Recombinant APE1 at 10,000 units/ml in 50% glycerol was purchased from NEW ENGLAND BIOLABS. One unit is defined as the amount of enzyme required to hydrolyze 20 pmol of a 34 bp oligonucleotide duplex containing a single AP site in a 10 ul reaction volume over one hour at 37° C. The reaction buffer consisted of 50 mM potassium acetate, 20 mM Tris-acetate, 10 mM magnesium acetate (pH 7.9) and 1 mM dithiothreitol.
All oligonucleotides, primers and probes were purchased from GENE LINK, INC. (Hawthorne, N.Y.). The two oligonucleotides that are specific to this technique, are designated the substrate and the template. The oligonucleotide with sequence 5′-GGGGTTTTGGGTTTTTTTAATTTTAGGTTGTGGTTGTGGTTGTCGGXGACGTGTTGGTTTTT/3ddC/3′ (SEQ. ID No. 1) serving as the substrate for APE contains the tetrahydrofuran, an abasic analog (X), and a 3′ dideoxy-C to prevent extension by DNA polymerase. […]
Real-time PCR was performed using a BIO-RAD LABORATORIES (Hercules, Calif.) ICYCLER using BIO-RAD LABORATORIES IQTM SUPERMIX. Cycle times were an initial step at 95° C. for 10 minutes followed by an amplification program of 50 cycles of 3 seconds at 95° C., 5 seconds at 61° C., and 20 seconds at 72° C. with fluorescence acquisition in relative florescent units at the end of each extension. […]

T1 sequence (P27695 whole entry): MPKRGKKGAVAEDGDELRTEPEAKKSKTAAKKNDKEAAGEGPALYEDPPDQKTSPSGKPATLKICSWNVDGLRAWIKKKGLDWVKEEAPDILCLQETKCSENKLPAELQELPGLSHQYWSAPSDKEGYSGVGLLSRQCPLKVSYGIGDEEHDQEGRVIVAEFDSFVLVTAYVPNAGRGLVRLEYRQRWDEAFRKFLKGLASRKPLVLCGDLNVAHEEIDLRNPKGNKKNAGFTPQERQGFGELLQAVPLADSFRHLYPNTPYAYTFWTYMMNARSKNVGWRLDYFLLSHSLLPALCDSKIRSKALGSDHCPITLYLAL

B1: 5′-GGGGTTTTGGGTTTTTTTAATTTTAGGTTGTGGTTGTGGTTGTCGGXGACGTGTTGGTTTTT/3ddC/3′ (nucleic acid)
chain: GGGGTTTTGGGTTTTTTTAATTTTAGGTTGTGGTTGTGGTTGTCGGGACGTGTTGGTTTTT
modifications: tetrahydrofuran abasic site; 3' dideoxy-C; SITE (46)...(47) Tetrahydrofuran is used to modify site 46 and 47. Serves as substrate for APE. Substrate is a commercial product. The 3′ end is modified by 3ddc/3′ to prevent extension by DNA polymerase.Chemically Synthesized
notes: substrate for APE; contains the tetrahydrofuran, an abasic analog (X), and a 3′ dideoxy-C to prevent extension by DNA polymerase
Q: How did the “CT of real-time PCR amplification” value turn out when B1 was run?
A: Its value is 26.3.
